The data set in a line: protein stability index of a GFP-peptide fusion (GPS, HEK-293T) (PSI 1-6); higher = more stable.
[1] abbreviates: treatment: DMSO, c terminus: a fixed tail appended.
[2] abbreviates: treatment: MLN4924 1 uM, 8 h, c terminus: a fixed tail appended.
[3] abbreviates: treatment: DMSO, c terminus: native.
The mark [4] stands for this setting: treatment: MLN4924 1 uM, 8 h, c terminus: native.

± gives the standard deviation.
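Note: 24-mer peptide tiles fused after GFP, lentivirally expressed, FACS-sorted into six equal bins by GFP/DsRed ratio, decoded by Illumina sequencing, PSI is the read-weighted mean bin number.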

On to KRRKDSEEEAASPEGKRVPKRLRC [FANCE], for which the protein stability index by setting is: under setting [1], 5.08 ± 0.3; under setting [2], 5.12 ± 0.26.

Turning to KSFILDFMLRYLYSQKESGHSNWL [ATL3], the protein stability index reads like this: under setting [1], 2.88 ± 0.33; under setting [2], 3.07 ± 0.48.

As to KSQSLRSVRRSESWARPRPDEERP [RASAL3], the protein stability index was determined as 4.89 ± 0.36 under setting [1] and 4.99 ± 0.12 under setting [2].

Regarding KTKYILLMDIVPADDHRYKFADNK [TBX5], the protein stability index under setting [1] amounted to 2.08 ± 0.22 and the protein stability index under setting [2] amounted to 2.3 ± 0.42.

For the sequence KTNLDGMITVQLPEVPANENIKGY [PTPRD], the protein stability index under setting [1] was 4.12 ± 0.4 and the protein stability index under setting [2] stood at 4.24 ± 0.28.

Sequence KTYQETPEIDMFLNVATFLDPRYK [ZBED1] registered a protein stability index under setting [1] of 2.38 ± 0.36 and a protein stability index under setting [2] of 2.56 ± 0.32.

For KVIDDTNITRLQLETEIEALKEEL [KRT18], the protein stability index was 4.2 ± 0.18 under setting [1] and 4.36 ± 0.23 under setting [2].

As for KVQKPLLQAPFLPPKAPPPVIKIP [RHOBTB1], the protein stability index was determined as 3.17 ± 0.11 under setting [1] and 3.35 ± 0.13 under setting [2].

Consider KYEAQNIVNSTEESDDAFDTVTIP [IQUB], for which the protein stability index came to 5.27 ± 0.22 under setting [1] and 5.09 ± 0.45 under setting [2].

In turn, KYEQAFESSQKYKEGKYIIELNHM [YPEL3] showed a protein stability index under setting [1] of 2.71 ± 0.1 and a protein stability index under setting [2] of 2.87 ± 0.2.

Regarding LALMIQSSGNTVLLLILCMQHSFP [TMEM192], the protein stability index runs as follows: under setting [1], 2.9 ± 0.073; under setting [2], 3.1 ± 0.48.

For the sequence LAPEVIQSKGHGRAVDWWALGILI [PRKX], the protein stability index by setting is: under setting [1], 2.61 ± 0.86; under setting [2], 2.3 ± 0.62.

For LAPTFSNLLLQPTTNPHTSASHRP [SMG5], the protein stability index is 3.55 ± 0.15 under setting [1] and 3.61 ± 0.26 under setting [2].

Turning to LARPECLFLLLGHGASPGLRDGGG [ANKRD9], the protein stability index by setting is: under setting [1], 2.29 ± 0.54; under setting [2], 2.19 ± 0.23.

As to LASIFQLAMWTTALLHQAETLQPS [TMEM175], the protein stability index under setting [1] amounted to 3.13 ± 0.29 and the protein stability index under setting [2] is 3.13 ± 0.75.

With LCDKLPPATALGTASYPSDGCGAD [NOL4L], the protein stability index reads like this: under setting [1], 4.98 ± 0.19; under setting [2], 4.92 ± 0.23.

With LCLLVAWSIVGMAVVKGIQSSGKV [SLC6A17], the protein stability index came out at 2.76 ± 0.49 under setting [1] and 2.84 ± 0.21 under setting [2].

With LDLKRQYDRVAQLDQLLHYRKKSA [CHGB], the protein stability index is 3.23 ± 0.26 under setting [1] and 3.63 ± 0.51 under setting [2].

For LDLSKNKLQQLPADFGRLVNLQHL [LRRC59], the protein stability index is, setting by setting: under setting [1], 2.54 ± 0.33; under setting [2], 2.63 ± 0.26.

LDQPVSAPPSPRDISMEIDSPENM [CCDC6]: the protein stability index reads like this: under setting [1], 5.47 ± 0.2; under setting [2], 5.23 ± 0.41.

In the case of LEAEVKDTTRVENLIKSENYGKIL [R3HDM1], the protein stability index under setting [1] came to 4.3 ± 0.59 and the protein stability index under setting [2] is 4.43 ± 0.42.

In the case of LEFKLKSNDNEERLQVVKLLAKMF [PDS5B], the protein stability index reads like this: under setting [1], 2.12 ± 0.38; under setting [2], 2.29 ± 0.28.

On to LEIDSGVITLDPQTASRSLVLSED [TRIM15], for which the protein stability index reads like this: under setting [1], 4.69 ± 0.19; under setting [2], 4.74 ± 0.32.

LEPPEEEIIEGNTKSHIMLVQRQM [NECAB1]: the protein stability index is, setting by setting: under setting [1], 4.64 ± 0.16; under setting [2], 4.8 ± 0.24.

On to LEQMIKENQEKTEDQYEENSHLTS [ETS2], for which the protein stability index was determined as 5.7 ± 0.16 under setting [1] and 5.51 ± 0.14 under setting [2].

In the case of LESIPSLSQSPEPGRRGDPDTAPP [RTN2], the protein stability index stood at 5.49 ± 0.12 under setting [1] and 5.535 ± 0.045 under setting [2].

Sequence LESVNHCHLNGIVHRDLKPENLLL [CAMK2D] yielded a protein stability index under setting [1] of 2.85 ± 0.34 and a protein stability index under setting [2] of 2.98 ± 0.41.

Consider LFLLLGHGASPGLRDGGGLTPLEL [ANKRD9], for which the protein stability index turned out to be 2.29 ± 0.32 under setting [1] and 2.36 ± 0.59 under setting [2].

For LFQSPLFAKAGDTLSGTCLLIANK [CARM1], the protein stability index was determined as 2.56 ± 0.76 under setting [1] and 2.81 ± 0.47 under setting [2].

As for LFVNSHPGIDRPGMLCSFRIPGAW [DCAF4], the protein stability index amounted to 2.38 ± 0.59 under setting [1] and 2.24 ± 0.43 under setting [2].

Take LGDEICCWSFYGQGRKIAEVCCTS [KCTD13]: the protein stability index by setting is: under setting [1], 2.15 ± 0.1; under setting [2], 2.1 ± 0.29.

In the case of LGDPCPMLESPGAPCRSAQASVSC [HDAC6], the protein stability index is, setting by setting: under setting [1], 3.94 ± 0.39; under setting [2], 4.06 ± 0.18.

LGDRLNVEVDTAPTVDLNQVLNET [KRT34] displayed a protein stability index under setting [1] of 4.87 ± 0.15 and a protein stability index under setting [2] of 4.96 ± 0.29.

Turning to LGGAIDFGAAYVLEQASSHIGNST [ATL3], the protein stability index reads like this: under setting [1], 3.03 ± 0.23; under setting [2], 3.2 ± 0.15.

In the case of LGLLDDYLEVAKHFKPHGFSSDKA [ATF4], the protein stability index by setting is: under setting [1], 2.89 ± 0.19; under setting [2], 3.07 ± 0.91.

With LGVGLGVEISRRLRHSNPRADPLV [SPNS1], the protein stability index came out at 3.082 ± 0.029 under setting [1] and 2.96 ± 0.22 under setting [2].

Take LIDEKVLILHGGVSDITDLELLDK [PPEF2]: the protein stability index reads like this: under setting [1], 3.14 ± 1.5; under setting [2], 3.71 ± 0.55.

Take LIFHRHPVAQSTDAIRGKVGYTRG [SPSB1]: the protein stability index came to 2.33 ± 0.23 under setting [1] and 2.41 ± 0.21 under setting [2].

With LIHPELNEGLMKWENRHEGVFKFL [ELF3], the protein stability index is, setting by setting: under setting [1], 2.36 ± 0.15; under setting [2], 2.48 ± 0.19.

For the sequence LINSNVSMVDLTSVTLEDVTPKKS [FAN1], the protein stability index by setting is: under setting [1], 3.34 ± 0.25; under setting [2], 3.55 ± 0.17.

With LIQPINHTTLQCLAARVIVNHRIY [FEM1C], the protein stability index is, setting by setting: under setting [1], 2.39 ± 0.3; under setting [2], 2.38 ± 0.43.

Take LKASEPGLFAVGEHTGEVRTARAL [PCDHGA10]: the protein stability index runs as follows: under setting [1], 4.06 ± 0.35; under setting [2], 4.21 ± 0.16.

For LKEDGMETVPWFPKKISDLDHCAN [TPH1], the protein stability index under setting [1] was found to be 4.11 ± 0.25 and the protein stability index under setting [2] was determined as 4.09 ± 0.21.

LKKLAEENPDLQEAYIAKQKRLKS [GDAP1]: the protein stability index under setting [1] amounted to 4.38 ± 0.22 and the protein stability index under setting [2] was 4.6 ± 0.28.

In the case of LKLALDMEIATYRKLLESEECRMS [KRT71], the protein stability index reads like this: under setting [1], 2.79 ± 0.46; under setting [2], 2.88 ± 0.24.

For the sequence LKLWEIGKIIGGMWRDLTDEEKQE [SMARCE1], the protein stability index reads like this: under setting [1], 2.67 ± 0.55; under setting [2], 3.44 ± 0.43.

On to LKNSNYESIQQTARSIAEQAHELA [PPTC7], for which the protein stability index came out at 3.91 ± 0.54 under setting [1] and 3.78 ± 0.26 under setting [2].

For LKYVRGLLQTEPQNNQAKELERLI [FIS1], the protein stability index worked out at 2.89 ± 0.29 under setting [1] and 3.02 ± 0.29 under setting [2].

Consider LLAAREDLSKIIRTSSGTSREKTA [FAM98B], for which the protein stability index runs as follows: under setting [1], 4.05 ± 0.15; under setting [2], 4.23 ± 0.24.

Take LLDLDPEVECLKANTNEVLWAVVA [GOLPH3]: the protein stability index runs as follows: under setting [1], 1.94 ± 0.21; under setting [2], 2.22 ± 0.41.

With LLESPQLATLAEDVTAALAKQGL [MAP2], the protein stability index came out at 4.66 ± 0.21 under setting [3] and 4.53 ± 0.2 under setting [4].

In the case of LLFCCQCVDVVFYNPDLKKVVEAH [RHOBTB3], the protein stability index under setting [1] came out at 2.4 ± 0.14 and the protein stability index under setting [2] was found to be 3.01 ± 0.52.

As to LLFSGGLSESETGPMEEVERQVLP [PBXIP1], the protein stability index under setting [1] turned out to be 4.06 ± 0.27 and the protein stability index under setting [2] worked out at 4.18 ± 0.38.

Consider LLGPATGCLLDDGLEGLFEDIDTS [SERTAD1], for which the protein stability index reads like this: under setting [1], 4.27 ± 0.097; under setting [2], 4.32 ± 0.37.

For LLKHSNIVRLHDSISEEGFHYLVF [CAMK2B], the protein stability index runs as follows: under setting [1], 2.68 ± 0.46; under setting [2], 2.42 ± 0.37.

On to LLLILCMQHSFPEPGRLYLDLILA [TMEM192], for which the protein stability index reads like this: under setting [1], 3.3 ± 0.48; under setting [2], 3.11 ± 0.32.

Consider LLLLLFWGVVSHSFPATLETQEQD [MMP1], for which the protein stability index is, setting by setting: under setting [1], 2.97 ± 0.58; under setting [2], 2.76 ± 0.82.

Regarding LLLSFWKETDPLTFNFISSLKAIC [PLD5], the protein stability index is 3.47 ± 0.96 under setting [1] and 2.44 ± 0.12 under setting [2].

Sequence LLNPEKYKAKSRSPGSPVGEGTGS [ADD1] had a protein stability index under setting [1] of 4.52 ± 0.26 and a protein stability index under setting [2] of 4.55 ± 0.21.

Regarding LLPTLYEIHSKTTAYSRLNETQPI [RNF180], the protein stability index by setting is: under setting [1], 1.96 ± 0.15; under setting [2], 2.15 ± 0.41.

LLQIIDTTLLKCYLHTNVALVAPL [VPS39]: the protein stability index is, setting by setting: under setting [1], 3.13 ± 0.49; under setting [2], 3.38 ± 0.21.

Regarding LMGPSRMSLFSLYMVQDQHECILP [M1AP], the protein stability index is 2.58 ± 0.3 under setting [1] and 2.33 ± 0.24 under setting [2].

Turning to LNCPFCGARLGGFNFVSTPKCSCG [RNF180], the protein stability index is, setting by setting: under setting [1], 2.25 ± 0.51; under setting [2], 3.28 ± 0.38.

As for LNECVGTAYWALAGSIGGLFFAVG [SLC22A15], the protein stability index under setting [1] amounted to 3.19 ± 1.4 and the protein stability index under setting [2] was determined as 3.72 ± 0.21.

Consider LNIYKTLKTHLIEKGILQPTLKV [CDS1], for which the protein stability index turned out to be 2.71 ± 0.94 under setting [3] and 2.86 ± 0.8 under setting [4].

With LNLNYNCISDELLENLCENASTLR [FBXO39], the protein stability index was 3.28 ± 0.16 under setting [1] and 3.29 ± 0.21 under setting [2].

On to LNSPPGPHSAKTEEHTTILRPSYT [CDC14A], for which the protein stability index reads like this: under setting [1], 4.41 ± 0.61; under setting [2], 4.651 ± 0.039.

Consider LPGNTTEATPRSLRASGSLCGPHA, for which the protein stability index by setting is: under setting [1], 4.46 ± 0.38; under setting [2], 4.28 ± 0.3.

On to LPLDDQVALLRAHAGEHLLLGATK [HNF4A], for which the protein stability index runs as follows: under setting [1], 3.6 ± 0.19; under setting [2], 3.63 ± 0.19.

For LPNASADSLGGSQEMVQRPQPHRN [TRAF3IP2], the protein stability index runs as follows: under setting [1], 5.25 ± 0.13; under setting [2], 5.26 ± 0.16.

For the sequence LPPSMERGYPPPRDSYSSSSRGAP [RBMX], the protein stability index came out at 4.5 ± 0.17 under setting [1] and 4.53 ± 0.2 under setting [2].

Regarding LPSLRTVSSSVIEQLFFVRLVGKT [NR2F2], the protein stability index runs as follows: under setting [1], 2.44 ± 0.37; under setting [2], 2.28 ± 0.071.

(Values after the supplement of paper PMC10567573.)
